# Measured values: the RNAGym collection of RNA variant scans (doi:10.1073/pnas.2313332121)
# Variants at the floor of the assay were thinned out.
# B1: TPR 5TU (parent)
# chain: GGAUCUUCUCGAUCUAACAAAAAAGACAAAUCUGCCACAAAGCUUGAGAGCAUCUUCGGAUGCAGAGGCGGCAGCCUUCGGUGGCGCGAUAGCGCCAACGUUCUCAACUAUGACACGCAAAACGCGUGCUCCGUUGAAUGGAGUUUAUCAUG
# Variants of: B1
# Assay: polymerase ribozyme fitness, log enrichment relative to wild type (log ratio); higher = more active; in vitro selection for triplet polymerase activity
# How it was run: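 In triplicate, a single round of in vitro selection was run on each mutant library, PCR-built and transcribed, covering one subunit of a heterodimeric triplet polymerase ribozyme. Frozen incubation at −7 °C followed annealing with a biotinylated primer, partner subunit and triplets, and extended constructs were then gel-excised, streptavidin-captured and taken through RT-PCR. Fitness is the logarithm of genotype enrichment over wild-type enrichment, from inverse-variance-weighted replicate averages of Illumina-sequenced inputs and outputs. […] only genotypes with ≥10 input reads and ≥1 read per output were kept.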
row,Variant,polymerase ribozyme fitness (log ratio)
1,G59U U102G,-3.26
2,U61A A64G G140C U144C,≤ -4.2
3,U61A G126C,-0.89
4,G62A G65A G117U U144A,-3.79
5,G62C C123A,-1.69
6,U61C A73U A91U,≤ -4.2
7,U61G A89U C95A C99A U109C G136A U148G C149A,≤ -4.2
8,C63A G80A C85G C96G A110G,≤ -4.2
9,A60C G88C,≤ -4.2
10,G59U G124C U134G U146A,-3.17
11,A60C G71A C85A G143C,≤ -4.2
12,G62A A121G,-0.384
13,A60C C76U,-3.17
14,A60C A91U C118A,≤ -4.2
15,A60G G94A,0.0761
16,U61A A122G G140C,≤ -4.2
17,A60G U134G G143U,-3.39
18,G59U G152C,-2.8
19,U61A C85U C87A C118G U134A,≤ -4.2
20,C63A A120U G124C,-2.49
21,G62C A120G,-0.94

row,Variant,polymerase ribozyme fitness (log ratio)
1,U61A G143C,-2.62
2,G62C C85A,-3.75
3,A60C A73G C93U,≤ -4.2
4,U61C U82C C116U U134C,-2.24
5,U61C G94A G141A C149A,≤ -4.2
6,C63G A91G,-2.57
7,A60G A91C C95U A110U C114U C118G A150U,≤ -4.2
8,U61C G92A A120C C123A U144C,≤ -4.2
9,G59U G94A A98G,-1.07
10,U61G G67U U90A A120G,≤ -4.2
11,U61G A122C,-1.51
12,A60C C93U,-2.64
13,A60C C93A,-3.64
14,C63G C69G,-1.75
15,A60C C76A G92U C95A U145G C149G,≤ -4.2
16,A60G U61A A97G,-1.38
17,A60G C69A G88A C95G U101A A106C A107G A119C U148A,≤ -4.2
18,C63A C85G C95U C118U,-2.65
19,A60U G84U,-1.58
20,U61A G68A,≤ -4.2
21,U61A A89U,-0.941

row,Variant,polymerase ribozyme fitness (log ratio)
1,U61G C96U U144G,-1.1
2,G62U C96U,-1.14
3,U61C A98U C103G A115G C131U,≤ -4.2
4,U61G A64C C75G C93U,≤ -4.2
5,U61G G68A U77C C87U C93G C123U G126C U135C,≤ -4.2
6,A60C C85A C125G U144G,-2.67
7,A60G G83A G86A A97C C125G C131G G136A G152U,≤ -4.2
8,A60G G84A C118A,-0.875
9,U61A G86U,-2.99
10,U61A C96A G126A C131U,-2.54
11,G62C A113U G117A A137C,≤ -4.2
12,A60U C93U,-3.16
13,A60G C87U U101A,-0.517
14,A60C U61G G92A A110U,-3.93
15,A60U C76U G86A G141A,-3.96
16,U61A G92U,-3.41
17,U61A G84A G92U G100U,≤ -4.2
18,U61A G83C,-3.05
19,G62A U82C C95A U101C U148A,≤ -4.2
20,A60G C123U G124A C131A,-2.39
21,A60U A89C A142U,-2.09

row,Variant,polymerase ribozyme fitness (log ratio)
1,A60G C105G U145G,-1.64
2,A60C G67C A73G G81A C114A G136C,≤ -4.2
3,A60G C99U A150C,-4.02
4,A60G A150G,-0.0266
5,U61G C76G C123U,≤ -4.2
6,U61G U101C,-2.61
7,C63A C76G C85U C96U A97G C116G,≤ -4.2
8,G62A C87G U90A C96U C99U U148G,≤ -4.2
9,G62A C93G U130C,-3.01
10,U61A A147U,-0.329
11,G59U U90G A91G C95A G126C U146G,≤ -4.2
12,U61A C69A C85A U139A C149G,≤ -4.2
13,U61G C93U,-1.89
14,U61G C93A,-4.13
15,C63A A64C,-1.46
16,A60G C116U,0.141
17,G59U G88C C116G,-3.85
18,U61G U82C A89U A120U U135A,-2.52
19,G62U G86C C95G C132U,≤ -4.2
20,U61A C105U,-1.02
